Assay results as given in the DeepSol protein solubility set.

Experiment: soluble on expression in E. coli; label from the status in PepcDB or PDB records

| Sequence | soluble on expression in E. coli |
| --- | --- |
| MSLKKQRIVVKIGSSSLTNSKGSIDEAKIREHVQAISVLKKAGHEMILITSGAVAAGFSSLGYPSRPVTIKGKQAAAAVGQTLLMQQYMNQFKQYSLTPGQILLTRNDFSKRERYRNAYATIMELLERGVIPIINENDSTSVEELTFGDNDMLSALVSGLIHADQLMILTDINGLYDANPNENPEAKRFDYLPEITPELLGYAGSAGSKVGTGGMKSKLLATQTALSLGVKVFIGTGSGEQKLADILDGRGDGTYIGDKELSSVNNTRQWIQFHSPISGEIIIDAGAEEAMIHNGSSLLPAGVVGVNGSFPKGAVVEVRGPGGVIGKGQTHYSSEEIMEAKGKRSDELDFEKTFEVIHEGHHHHHH | soluble |
| MFNKKENSSPDVFDTLIGVNTFLEGNIETEGTVRIDGKIKGNVKVKGDVYIGKDANINGNISANNVYMSGRVDGNIEAKGVLRILSTAQLYGDILVQSLISDEGSIFEGNCKMVSASNAQNSDGSVSKNNKNVKDKDGDKSHTSA | not soluble |
| MGSDKIHHHHHHMSSPSFNVEEHKKMLQSYFNGQGFQRWASIYGDDKLSTVRSTVRQGHAVMMDKAFEWLQKTGLPKGSKILDAGCGTGLFTIRLAKSGYRVKAADIAEQMVNKTREDAEKAGVAGNVEFEVNSIESVSGTFDAVVCFDVLIHYPAEGFAHAFSNLAGLTKGPIIFTYAPFNNILAFQHWIGGFFPKKERRTTIQMIKDKEMQRVLSELGLKIVSQQKISFGFYHTMLMHVARR | not soluble |
| RMSSQIRQNYSTDVEAAVNSLVNLYLQASYTYLSLGFYFDRDDVALEGVSHFFRELAEEKREGYERLLKMQNQRGGRALFQDIKKPAEDEWGKTPDAMKAAMALEKKLNQALLDLHALGSARTDPHLCDFLETHFLDEEVKLIKKMGDHLTNLHRLGGPEAGLGEYLSSKGSLSSTTKSLLSPATSEGPLAK | soluble |
| MSLSRLSEKKGFNFNIIKNDPLDGHKGTNIGSISLDNIAPVFIDIENQKAFVDIGGMHARAEVEKGVKWITDKSQVEGEEAKAYWLCWVTTERSEQGPYYAGVTACYLLVNKSIRRGYKSMPEHVNMMDKSMKHQFIIDQIGDDNKQILKEFLQNHNVEMWNNSSEELYRTFEEGHHHHTTDPNSSSVDKLAAALEHHHHHH | soluble |
| MKIITAINEDEWASITHIATTVHLKKDQLIIRKGDPGNKEVFLVNGIVRGFITDENGNEKSTSFFEEGEFMSTQALRTKKGISLYNYQALCRTKLLIFDSKQLKDLLSATKKLSEIGKAIKERELTRLMNRDDCLMQVKALDKYQKFITYYPALERQISQRYIASYLGITPVSLSRLKKSMIVRTDNN | not soluble |
| MGSDKIHHHHHHMMKMERKNVWHHRKKEEIEAFSKEYMEFMSKAKTERMTVKEIKRILDESGFVPLEDFAGDPMNMTVYAVNRGKAIAAFRVVDDLKRGLNLVVAHIDSPRLDFKPNPLIEDEQIALFKTHYYGGIKKYHWLSIPLEIHGVLFKNDGTEIEIHIGDKPEDPVFTIPDLLPHLDKEDAKISEKFKGENLMLIAGTIPLSGEEKEAVKTNVLKILNEMYGITEEDFVSGEIEVVPAFSPREVGMDRSLIGAYGQDDRICAYTALRALLSANPEKSIGVIFFDKEEIGSDGNTGAKARFYLKALRQILKMQGAKDSEFVLDEVLENTSVISGDVCAAVNPPYKDVHDLHNAPKLGYGVALVKYTGARGKYSTNDAHAEFVARVRKVLNEQGVIWQVATLGKVDQGGGGTIAKFFAERGSDVIDMGPALLGMHSPFEISSKADLFETYVAYRSLMEKL | not soluble |
| MVINIRRSRPDEGDKLTAIWCRSVDATHDFLTKAYRKELEEMVRAFLPEAPLWVAVSTEDQPIAFMLLTGDHMDALFVDPDVRGCGVGKLLIEHALSLTPKLTTNVNEQNEQAVGFYQKMGFRVTGRSETDDLGQPYPLLNLMYEQQAEADYD | not soluble |
| HHHMFNAKYVAEATGNFITVMDALKLNYNAKDQLHPLLAELLISINRVTRDDFENRSKLIDWIVRINKLSIGDTLTETQIRELLFDLELAYKSFYALLD | soluble |
| MNAIIFCLLFTTVTATYEVFGKGIEHRNEHLIINQLDIIPVESTPTPNRASRVQKRLCGRRLILFMLATCGECDTDSSEDLSHICCIKQCDVQDIIRVCCPNSFRK | not soluble |
| MRKSRDANPFKAMPNILYPDELMDKAYNRSEKIAGELRTTTRGLSTPKSKIIEDNKIRTTASVISDNLLKIVEKTPSIDNLDPFYREILEIMVGSDEFKKSLAAVQWASEIVKKLGTQYSRKVKKAPSPQATSIVRKEFIGRVSSVLKQIYPNMAFLGVARNKLKNIPTVKNLPSVVIAGYPNVGKSTLLRTLTDAEPEVNSYPFTTKGLNIGYTEEGIQIIDTPGVLDRPIYERNDIELHAVVAINYLSDMILFVIDPTEFCGFTMEEQFNLLQEIRKTFNVPILVALTKMDVDEIEGLDKLEEDLGEYEVLKVSSFKKEGIADLRERLLDILDEQGLMGLLEELEHHHHHH | soluble |
| MVKVGIIGGSGLEDPNILLDPVTVAVDTPYGKPSDDVVEGTINGVECVLLARHGRKHDIMPGNVNFRANLWALYSRGVDVIIASTACGSLQENVEPGHLLFPDSVFDRTTGRQSTFFDGSYDQAPGVCHIQAHPTYNEKLRQVLISTAERCQLVHHRTGFGVCIEGPRFSTKAESMVFKSWGASLVNMTMMPECILAKELGIPYATTALVTDYDCWKEEDHVTASSVMKVFAANVEKAKTLFVEAVGEIGKIDWSAEILKLKTEARESVMISPDVVIPFLTTDNQKKF | not soluble |
| MVREDRSTWKANYFTKLVELFEEYPKCLLVGVDNVGSKQMQEIRQAMRGHAEILMGKNTMIRKALRGHLGKNPSLEKLLPHIVENVGFVFTKEDLGEIRSKLLENRKGAPAKAGAIAPCDVKLPPQNTGMGPEKTSFFQALQIPTKIARGTIEILNDVHLIKEGDKVGASESALLNMLGVTPFSYGLVVRQVYDDGTLYTPEVLDMTTEELRKRFLSGVRNVASVSLAVNYPTLASVAHSLANGLQNMLGVAAVTDVSFKEAETIKAFIADPSKFAAAAPAAAAAPAAAAPAAKKEEPKEESDDDMGFGLFD | not soluble |
| MSLKYSSTTADYLQWSEAMNLIRKLARDSNYKMSLLIALGCFTGLRISDILALRWNQILDAEEFTIIEIKTGKQRTIRINMQLQQHIRDCYEHINPVGINAPVLISQKGTVYTVQRINVMLKEIKKKYKLQIGNFSCHSLRKTFGRQVYNMNSDNSELALVKLMELFNHSSVSITKRYLGLRQEELLNTYDCLSF | not soluble |
| MYNLKNIYASITLYPHEINLVVSDNNNQFHVLYENSIANDELYTHAGITNKAKFKVVLNQLINNANDYLGFKLEKVIVVLAELVDDLEINRFKTDVFFTGYDFNHQDMLSSEKNRFLLKNRHINPNEVLDLVALNYRDLTTDKISKNFKYNCSYRANVIYYTTKNSLVKELKPFLKRNIIVKIDKIVTHHMVLAHSIKQINKNNLFVYLGEHTTDLMLFMDNALVDLVSEPFGRVNFLESDNDSENKALLEFLVDSTARIGDSGSIGMAYTDGSTYKEIRAVTIDDLIQSVNEKTKYLIDFINTNTEIFFQKYGFLPSTLLFYTKSKQLLNNFQLNQNLLSNHFKTVTIFKNEVQFVSRKYLLNCQTIALSWRQDQINVNPTSFALPFYSDKIEKQFKKSFLMLKVHTHINKLVQKLIK | soluble |
| GIVNVPNPNNTKFQELARFAIQDYNKKQNAHLEFVENLNVKEQVVAGIMYYITLAATDDAGKKKIYKAKIWVKEWEDFKKVVEFKLV | soluble |
| MGSDKIHHHHHHMCIYCISKQVFCLSGLRFPYGFTPMGLHLRSLNMAYINKSNVSILRSLSCASISLYYSMSAAASHLEVDDPALAERCELEMGWQQPRSDHARTQLNATTTCSRNQWEWHVGLASNVNDDIREEQAEVGIKLPLNLNSHSDSNRQQDDWHSALVINLQKNLDASNELATEVFGIFGKTLSDSDVSLYANVGFTHEFNQSTQLLVGIAAAHELSSHHRVITELYQKELSETAYQFAYQHTPQQQLQLELSLGNALRGNALQLGADITFYFGH | not soluble |
| MGSDKIHHHHHHMSHLLKPKPNLLLIDDDEDVLDACRQLFNLSGYQVRATNSPQKALEALSRDWDGVVISDIYMPAMHGLDLLAAVHHIDPQIPVIMITGHADIPLAVKAVKQGAADFIEKPLDPPTFLALVKKAATQRHQLIGQRQNIQDSLAGQLLGSSAQINDLREQLGQLALTDRDVMLEGPRGVGRNTLAALLHKLGPRAEGPLQQLECALVESPEKLQQAVDASRGGTLILRELEHLPTDSQRWLASFLLDQERRGNKEVRTIAILESQPETLVQEQTLTPECFYYFSQVRLRLPALCERPSDIVPLFMAFLKESCRRLSRKMPTVENRYLDNLKQHSWPGNVRELRNVAELYAVGIVKLANVQRIAAAPSVKGPLDELVDDYEKRLIEDALFLFSGRVSEAADYLNVPRKKLYLRMKKYGLDKECFKPVKPGRG | not soluble |
| LRKQVELLFNTRYAKAIGISEPVKVPYSKFLMHPEELFVVGLPEGISLRRPNCFGIAKLRKILEASNSIQFVIKRPELLTEGVKEP | soluble |
| GSARPSSSMADFRKFFAKAKHIVIISGAGVSAESGVPTFRGAGGYWRKWQAQDLATPLAFAHNPSRVWEFYHYRREVMGSKEPNAGHRAIAECETRLGKQGRRVVVITQNIDELHRKAGTKNLLEIHGSLFKTRCTSCGVVAENYKSPICPALSGKGAPEPGTQDASIPVEKLPRCEEAGCGGLLRPHVVWFGENLDPAILEEVDRELAHCDLCLVVGTSSVVYPAAMFAPQVAARGVPVAEFNTETTPATNRFRFHFQGPCGTTLPEALA | soluble |
| MQIVQIARPGSMKGWIRKAVARYAHATGRGGKFYRRFCNPSGLEWGAYLARWGNFHSVGSNFYVNTGCKFLDPSLVRIGNSVGLSDCTLIGHDGVVLLIEHRFGKHLDSVGFIDIKDNCFIGHGAIVMPRVTIGPESIVAAGAVVTKDVPPGTVYGGNPAEFICTTEQLIKRVEARCEAYPWIDLVKQRNGAYDPEVEPLLMAQRRQYFFGDSLEHHHHHH | not soluble |
| MGSDKIHHHHHHMANFSYEVFSKVVERGTLAKAAAELNVTPSAVSHSVSQLETELGFPLLIRNRTGVALTEDGAQVLPIIQSIQNLEEQLTQVADNINGVNTGRIRIGAFSSVSTNWLPTIIRRFKKRYPHIEISVVQGTFNRIVEAVRLGTADIGFSSLPVGPGVVVEPLLKDPIYCITAKQFKPKNGRTVTQADVDKQNFILQQIDYDRDTKNALDRYHVSSNAINYSIDDQSILSMVESGLGMGILPKLAVQKLVGDVNMYPFSEPFERTLCLVINPTIKKSPSVQRMQQVIHSFLAETYGEAFLGHQG | not soluble |
| MINSSEGKSDNKIIEKATQILSKYPLCDSCLGRCFARLGYGLENKERGRAIKISLMLILDEKIKNHEIGDLSSIKRIMENLGPIAEKWYKLYFSSEFHSHPCYLCQNKIEDIKEDFSDKAFKLLSGLGVKSYVLGVELDEETKKKESKIIEEFTLMYYESIKHEIKREVGKTLSKRGYPPNMDNPEVEIVYRLSDLQVFIISKNIRTFYVYNRLNRNLPISSWFSKQGNEGLNTLLQRKIVFAFSEPTTVRILADYPIVIENEGRDKIDVGGYYIFKVMTVGKKELQAISAAKPTMRKYRVTVYSTSSLSDAIRVYGNIYDLYIDAKSFSELNEKLSKLKSQYEIIVLSVDLIDVKGRIKDIIENYLKSFLEHHHHHH | not soluble |
| MNIIILAGGEGKRMGGVDKAAVAVDGRTLLDILLSQLDPEDDVVVVSPAIIDGITTVCEEPPLGGPVAGIEAGLNSFEHAHEFTAILAVDAPYSAAMLPLLQAQIGKADVAVTLAADGWVQPLCALWRSGSLEAVIHSLGETRNRPAKALLKQAGHIVEVGGDGTEKDYDTVAELEVLGNVTLPKAHLEHHHHHH | not soluble |
